Here are results for 6 molecules from US20220033501A1 (SHANGHAI PHARMAEXPLORER, published 2022).

The target in assay [1] is T1, human TIM-3 protein with hFc tag (hTIM-3-hFc protein) (human, UniProt Q8TDQ0 22-200).
T1 construct: also called immunogen 1; human TIM-3 extracellular domain protein; not shown: human IgG Fc fragment (hFc) of the pCpC vector
T1 sequence: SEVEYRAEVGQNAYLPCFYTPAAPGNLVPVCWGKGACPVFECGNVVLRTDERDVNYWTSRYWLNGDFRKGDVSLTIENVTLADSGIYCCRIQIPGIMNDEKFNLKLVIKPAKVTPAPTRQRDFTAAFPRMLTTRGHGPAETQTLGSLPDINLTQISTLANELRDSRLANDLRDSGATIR
Briefly: ELISA, coated hTIM-3-hFc; antibody 0.0007 nM. An excerpt: (§1) The amino acid sequence 22-200 of the extracellular domain of the human TIM-3 protein described in the step of Example 1 (as shown in SEQ ID NO. 71 in the sequence listing) was cloned into a pCpC vector having a human IgG Fc fragment (hFc), and transfected into HEK293 cells. The cell culture medium was collected, and purified to obtain the human TIM-3 protein with hFc tag (herein referred to as hTIM-3-hFc protein). The amino acid sequence 22-201 of the extracellular domain of the monkey TIM-3 protein (as shown in SEQ ID NO. 72 in the sequence listing) was cloned into a pCpC vector having a human IgG Fc fragment (hFc), and transfected into HEK293 cells. The cell culture medium was collected, and purified to obtain the monkey TIM-3 protein with hFc tag (herein referred to as cTIM-3-hFc protein). […] The cell culture medium was collected, and purified to obtain the murine TIM-3 protein with hFc tag (herein referred to as mTIM-3-hFc protein). Purified human, monkey, and mouse TIM-3 extracellular domain proteins (hTIM-3-hFc, cTIM-3-hFc, and mTIM-3-hFc) were diluted with PBS to a final concentration of 1.0 μg/ml and then added to a 96-well ELISA plate with 100 μl per well. The plate was sealed with plastic film and incubated overnight at 4° C. The plate was washed 4 times with the plate washing solution (PBS+0.01% Tween20) on the next day, and added with the blocking solution (PBS+0.01% Tween20+1% BSA) and sealed at room temperature for 1-2 hours. The blocking solution was poured out. 50-100 μl of the antibody sample to be tested was added to each well. The plate was incubated at 37° C. for 1-2 hours, and washed 2-3 times with plate washing solution (PBS+0. 01% Tween20). HRP (horseradish peroxidase) labeled secondary antibody was added. The plate was incubated at 37° C. for 1-2 hours, and washed 2-3 times with plate washing solution (PBS+0. 01% Tween20). […] of TMB substrate was added to each well. After incubated at room temperature for 15-30 minutes, the plate was added with […] stop solution (1.0N HCl) to each well. An ELISA plate reader (TiterMax 384plus, Molecular Device) was used to read the A450 nm value.

Assay [2] addresses T1, human TIM-3 protein with hFc tag …. The assay can be described thus: ELISA, coated hTIM-3-hFc; antibody 0.0067 nM.
Excerpt: as §1
In general terms: ELISA stands for enzyme-linked immunosorbent assay.

Assay [3] has the same target. Briefly: ELISA, coated hTIM-3-hFc; antibody 0.0667 nM.
Excerpt: as §1

For assay [4], the target named is T2, murine TIM-3 protein with hFc tag (mTIM-3-hFc protein) (mouse; human, UniProt Q8VIM0 29-191).
T2 construct: Made in HEK293 cells; also called mouse TIM-3 extracellular domain protein; not shown: human IgG Fc fragment (hFc) of the pCpC vector
T2 chain: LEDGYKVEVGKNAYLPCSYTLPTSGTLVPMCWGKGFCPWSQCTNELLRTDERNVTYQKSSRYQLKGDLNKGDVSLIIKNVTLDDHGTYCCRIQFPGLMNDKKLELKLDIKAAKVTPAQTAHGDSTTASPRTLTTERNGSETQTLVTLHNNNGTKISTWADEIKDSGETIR
The assay can be described thus: ELISA, coated mTIM-3-hFc; antibody 0.0001 nM.
Excerpt: as §1

The target of assay [5] is T2, murine TIM-3 protein with hFc tag …. The assay can be described thus: ELISA, coated mTIM-3-hFc; antibody 0.0067 nM.
Excerpt: as §1

B1: 215A8F2 (TIM-3 antibody purified from hybridoma, chimeric antibody of Example 2) (antibody, V domains shown)
VH: QVQLQQWGAGLLKPSETLSLTCTVYGGSFSGYYWNWIRQPPGKGLEWLGEINHSGSTNYNPSLKRRVTISVDTSKNQFSLKLSSVTAADTAVYYCARVYYYGPFDFWGQGTLVTVSS
VL: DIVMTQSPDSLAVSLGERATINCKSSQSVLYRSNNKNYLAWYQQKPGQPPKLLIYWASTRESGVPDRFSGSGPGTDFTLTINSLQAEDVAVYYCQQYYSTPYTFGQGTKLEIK
notes: From hybridoma of Harbour H2L2 transgenic mice: human variable regions, rat constant regions
In the case of B1, the OD450 in assay [1] was determined as 0.14; in assay [2] it was 0.28; in assay [3], 1; in assay [4], 0.63; in assay [5], 0.64.

B2: 18D2H2 (TIM-3 antibody purified from hybridoma, chimeric antibody of Example 2) (antibody, V domains shown)
VH: EVQLVESGGDLVQPGGSLRLSCAASGFTFSTYWMTWVRQAPGRGLEWVANIKQDGSAKYYVDSVKGRFTLSRDDAKNSLYLQMNSLRAEDTAVYYCARGSNWFDYWGQGTLVTVSS
VL: ETVMTQSPATLSVSPGERATLSCRANQNVYSNLAWYQQKPGQAPRLLIYDASTRATGFPARFSGSGSGTEFTLTISSLQSEDFAVYYCQQYNNWPLTFGGGTKVEIK
notes: as for B1
On to B2, for which the OD450 was found to be 0.12 in assay [1]; 0.16 in assay [2]; 0.35 in assay [3]; 0.64 in assay [4]; 0.63 in assay [5].

B3: 34B6D8 (TIM-3 antibody purified from hybridoma, chimeric antibody of Example 2) (antibody, V domains shown)
VH: EVQLVESGGGLVQPGGSLRLSCAASGFTFSTYWMTWVRQAPGKRLEWVANIKQGGGDKYYVDSVKGRFTISTDNAKNSLYLQMNSLRAEDTAVYYCARGSNWFDPWGQGTLVTVSS
VL: EIVMTQSPATLSMSPGERATLSCRASQSVYDNLAWYQQKPGQAPRLLIYGASTRATGIPARFSGSGSGTEFTLTISSLQSEDFALYYCQQYTHWPITFGQGTRLEIK
notes: as for B1
For B3, the OD450 in assay [1] was determined as 0.15; in assay [2] it was 0.33; in assay [3], 1.62; in assay [4], 0.62; in assay [5], 0.65.

B4: 39E5H1 (TIM-3 antibody purified from hybridoma, chimeric antibody of Example 2) (antibody, V domains shown)
VH: EVQLVESGGGLVQPGGSLRLSCAASGFTFSSYWMSWVRQAPGKGLEWVANIKRGGSERYYVDSVKGRFTISGDNAKNSVYLQMNSLRAEDTAVYYCARGSNWFDPWGQGTLVTVSS
VL: ETVMTQSPAILSVSPGERATLSCRASQSVYSNLAWYQQKLGQAPRLLIYDASTRATGIPARFSGSGSGTEFTLTISSLQSEDFAVYYCQQYNNWPITFGQGTRLEIK
notes: as for B1
B4: the OD450 in assay [1] was 0.16; in assay [2], 0.42; in assay [3], 1.78; in assay [4], 0.64; in assay [5], 0.64.

B5: 134H3G6 (TIM-3 antibody purified from hybridoma, chimeric antibody of Example 2) (antibody, V domains shown)
VH: EVQLVESGGGLVQPGGSLRLSCAASGFTFSNSWMTWVRQAPGKGLEWVANIKQAGTEKYYVDSVKGRFTISRDNAKNSLYLQMNSLRAEDTAVYYCNSGSNYFDYWGQGTLVTVSS
VL: EIVMTQSPATLSVSPGERATLSCRARQNFYSNLAWYQQKPGQAPRLLIYGASTRATGIPARFSGSGSGTEFTLTISSLQSEDFAVYYCQQYNNWPLTFGGGTKVEIK
notes: as for B1
As to B5, the OD450 was 0.13 in assay [1]; 0.13 in assay [2]; 0.2 in assay [3]; 0.64 in assay [4]; 0.64 in assay [5].

B6: 57F4E5 (TIM-3 antibody purified from hybridoma, chimeric antibody of Example 2) (antibody, V domains shown)
VH: EVQLVESGGGLVQPGGSLRLSCAASGFTFSSYWMSWVRQAPGKGLEWVANIKQDGSEKYYVDSVKGRFTISRDSAKNSLYLQMNSLRAEDTAMYFCARDSNFFDYWGQGTLVTVSS
VL: ETVMTQSPATLSVSPGERATLSCRASQSVSSNLAWYQRKPGQAPRLLIYFSSTRATGIPARFSGSGSGTEFTLTISSLQSEDFAVYYCQQYNNWPLTFGGGTKVEIK
notes: as for B1
Take B6: the OD450 in assay [1] is 0.19; in assay [2] it was 0.63; in assay [3], 2.83; in assay [4] it was 0.63; in assay [5], 0.68.
